Assay results reported in patent publication US20110212108A1, “NEUREGULIN/ERBB SIGNALING AND INTEGRIN” (THE REGENTS OF THE UNIVERSITY OF CALIFORNIA, priority 2008, published 2011).
Where a chain is given by its changes, count along the chain named.

T1: CHO cells that express human β3 (β3-CHO) (Homo sapiens, UniProt P05106)
T1 construct: expressed in transfected cells; host or cells: CHO
T1 sequence (P05106 27-788): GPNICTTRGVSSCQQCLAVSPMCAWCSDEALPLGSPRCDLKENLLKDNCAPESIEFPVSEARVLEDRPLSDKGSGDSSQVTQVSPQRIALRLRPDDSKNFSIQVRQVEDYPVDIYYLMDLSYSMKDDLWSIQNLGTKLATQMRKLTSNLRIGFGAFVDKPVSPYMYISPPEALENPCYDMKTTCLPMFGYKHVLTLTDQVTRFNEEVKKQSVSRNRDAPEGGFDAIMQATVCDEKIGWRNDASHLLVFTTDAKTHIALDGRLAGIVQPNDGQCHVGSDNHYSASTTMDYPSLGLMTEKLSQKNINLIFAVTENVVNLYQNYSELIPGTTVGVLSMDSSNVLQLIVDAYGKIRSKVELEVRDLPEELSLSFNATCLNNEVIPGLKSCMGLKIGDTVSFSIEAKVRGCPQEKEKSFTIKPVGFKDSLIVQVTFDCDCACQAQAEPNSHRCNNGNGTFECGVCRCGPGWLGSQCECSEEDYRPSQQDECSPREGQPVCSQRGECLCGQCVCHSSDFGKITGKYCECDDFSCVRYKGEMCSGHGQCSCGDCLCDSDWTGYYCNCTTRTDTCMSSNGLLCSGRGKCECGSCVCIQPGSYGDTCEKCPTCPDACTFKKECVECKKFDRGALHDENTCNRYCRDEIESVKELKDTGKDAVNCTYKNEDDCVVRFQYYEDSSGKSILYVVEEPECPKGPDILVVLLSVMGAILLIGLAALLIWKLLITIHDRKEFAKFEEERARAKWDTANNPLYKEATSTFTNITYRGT

B1: WT NRG1α (175-241): wild type human neuregulin 1 fragment, residues 175-241 of SEQ ID NO:4 (SEQ ID NO:5), entire EGF-like motif and α domain (protein)
chain: GTSHLVKCAEKEKTFCVNGGECFMVKDLSNPSRYLCKCQPGFTGARCTENVPMKVQNQEKAEELYQK
modifications: integrin-binding site within human neuregulin, residues 175-241of human neuregulin 1alpha, long version
B2: 3KE (175-241): NRG1α (175-241) with Lys181/Lys185/Lys187 mutated to Glu, SEQ ID NO:6 (3KE, long version) (protein)
chain: B1 chain with K7E, K11E, K13E
modifications: integrin-binding site within human neuregulin, residues 175-241of human neuregulin 1alpha, long version, 3KE mutant

Legend:
[1] = tested on: B-16 F10 Cells; test: B16F10 cell proliferation, MTS assay; assay type: cell-based, mouse; settings: 24 hours
Protocol: FIG. 10. […] B-16 F10 Cells were starved for 5 days in DMEM+1% FBS medium, and then added 3KE (175-222) and WT (175-222) NRG1 at indicated concentrations for 24 hours by MTS assays. P=0.0354 (between wt and 3KE+wt) and P<0.0001 (between wt and 3KE) by 2-way ANOVA.
Cell proliferation: cells were starved by culturing DMEM with low-level FCS (e.g., 0.4%) overnight and then treated with the wt or mutant NRG1 (175-222) (up to 100 ng/ml). The cells were harvested in 15 min to 6 h after stimulation and cell lysates analyzed by western blotting with antibodies specific to signaling molecules. Alternatively, cells were cultured for 24-48 h after stimulation for testing proliferation or cell viability by MTS assays. Statistical analysis and calculation of kinetic constants were performed using Prism software (Graphpad).

[2] = molecular target: T2, CHO cells that express human α6β4 (Homo sapiens, UniProt P16144+P23229); test: Cell adhesion assay, α6β4-CHO cells; assay type: cell-based; settings: DMEM, 1 h at 37° C.
T2 construct: expressed in transfected cells; host or cells: CHO
Protocol: FIG. 17. CHO cells that express human α6β4 adhered to wt NRG1 (175-222) but not to the 3KE (175-222) mutant. Wells of 96-well microtiter plate were coated with wt or 3KE mutant NRG1 (175-222) and incubated with α6β4-CHO or β1-CHO cells in DMEM for 1 h at 37° C. as described herein. Bound cells were quantified.

[3] = molecular target: T1, CHO cells that express human β3 (β3-CHO); test: Cell adhesion assay, β3-CHO cells; assay type: cell-based
Protocol: (§1) CHO or K562 cells expressing different recombinant integrins were previously known and available (Zhang et al. 1998; Tarui et al. 2006). Labeling of proteins with FITC or […] was performed according to manufacturers' instructions. Flow cytometry was performed as described above.
(§2) Cell adhesion and soluble integrin binding assays were performed as described previously (Mori, et al., 2008). NRG1α (175-241) was immobilized to wells of 96-well microtiter plate overnight at 4° C. in 0.1 M carbonate buffer, pH 2 9.4. Remaining protein binding sites were blocked by incubating with 200 μl of 0.1% BSA in PBS for 60 min at room temperature. Wells were then incubated with soluble integrin αvβ3 in 50 μl in Hepes-Tyrode's buffer supplemented with 1 mM Mn2+ at room temperature for 60 min. After rinsing the wells with the same buffer, bound integrins were determined by horseradish peroxidase (HRP)-conjugated anti-His tag mouse IgG and substrate 3,3′,5,5′-tetramethylbenzidine of HRP.

[4] = molecular target: T3, CHO cells that express human β1 (β1-CHO) (Homo sapiens, UniProt P05556); test: Cell adhesion assay, β1-CHO cells; assay type: cell-based
T3 construct: expressed in transfected cells; host or cells: CHO
Protocol: FIG. 3. Adhesion of CHO cells that express human β1 (β1-CHO) or β1-3-1 (β1-3-1-CHO) to wt NRG1 (175-222). The β1-3-1 mutation changes the specificity of β1 integrins to that of β3 integrins. Cell adhesion was performed as described herein. β1-3-1-CHO cells adhered to wt NRG1 (175-222) and this binding was blocked by anti-human β1 antibody AIIB2, but not by purified mouse IgG (mIgG). BSA: BSA as a control was coated instead of NRG1 (175-222).
as §1, with “above. Also, adhesion assays as described above were used to confirm the findings using flow cytometry.” for “above.”
as §2, with “Wells were then incubated with soluble integrin αvβ3 in 50 μl in Hepes-Tyrode's buffer supplemented with 1 mM Mn2+ at room temperature for 60 min.” left out

[5] = molecular target: T4, Recombinant human ErbB3 Fc chimera (Homo sapiens, UniProt P21860); test: ELISA-type binding to immobilized recombinant soluble ErbB3; settings: ErbB3 Fc coated at 1 μg/ml, 1 h room temperature
T4 construct: Recombinant soluble ErbB3 Fc fusion protein was coated onto well of 96-well microtiter plate; purchased R&D Systems
Protocol: FIG. 20. The 3KE mutant of NRG1α (175-241) binds to ErbB3. a). Binding of the 3KE mutant of NRG1α (175-241) to recombinant ErbB3. Recombinant soluble ErbB3 Fc fusion protein (R&D system) was coated onto wells of 96-well microtiter plate (1 μg/ml). NRG1α (175-241) WT or 3KE (175-241) mutant was added to the wells and incubated for 1 h at room temperature. GST was used as a control. After washing the wells, bound GST NRG1α (175-241) was determined by using anti-GST antibody HRP conjugate. […] Competitive binding assay. Recombinant soluble ErbB3 Fc fusion protein was coated onto well of 96-well microtiter plate (1 μg/ml). Binding of biotin labeled NRG1α (175-241) WT (20 nM) in the presence of increasing concentrations of NRG1α (175-241) WT, 3KE (175-241) or GST. After washing the wells, bound biotin labeled NRG1α (175-241) WT was determined by using streptavidin HRP conjugate.

T4 sequence (P21860 20-643 limits assumed, change not shown): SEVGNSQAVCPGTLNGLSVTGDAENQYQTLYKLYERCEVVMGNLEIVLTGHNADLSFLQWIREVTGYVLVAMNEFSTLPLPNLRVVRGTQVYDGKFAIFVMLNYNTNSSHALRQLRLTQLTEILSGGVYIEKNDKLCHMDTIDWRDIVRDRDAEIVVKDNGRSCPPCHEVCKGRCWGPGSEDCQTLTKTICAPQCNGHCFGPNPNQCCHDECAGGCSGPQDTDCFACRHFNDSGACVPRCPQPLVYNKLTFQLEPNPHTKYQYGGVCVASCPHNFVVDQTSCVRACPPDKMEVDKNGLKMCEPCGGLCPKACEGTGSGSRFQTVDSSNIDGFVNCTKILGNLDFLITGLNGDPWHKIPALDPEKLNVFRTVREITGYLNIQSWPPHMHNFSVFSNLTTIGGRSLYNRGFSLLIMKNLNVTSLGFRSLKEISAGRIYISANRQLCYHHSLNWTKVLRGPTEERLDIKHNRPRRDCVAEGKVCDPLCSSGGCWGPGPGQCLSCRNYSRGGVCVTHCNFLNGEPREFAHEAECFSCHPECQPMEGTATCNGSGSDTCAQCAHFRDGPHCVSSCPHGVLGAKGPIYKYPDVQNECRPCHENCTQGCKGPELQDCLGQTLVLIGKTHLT
T3 sequence (P05556 21-798): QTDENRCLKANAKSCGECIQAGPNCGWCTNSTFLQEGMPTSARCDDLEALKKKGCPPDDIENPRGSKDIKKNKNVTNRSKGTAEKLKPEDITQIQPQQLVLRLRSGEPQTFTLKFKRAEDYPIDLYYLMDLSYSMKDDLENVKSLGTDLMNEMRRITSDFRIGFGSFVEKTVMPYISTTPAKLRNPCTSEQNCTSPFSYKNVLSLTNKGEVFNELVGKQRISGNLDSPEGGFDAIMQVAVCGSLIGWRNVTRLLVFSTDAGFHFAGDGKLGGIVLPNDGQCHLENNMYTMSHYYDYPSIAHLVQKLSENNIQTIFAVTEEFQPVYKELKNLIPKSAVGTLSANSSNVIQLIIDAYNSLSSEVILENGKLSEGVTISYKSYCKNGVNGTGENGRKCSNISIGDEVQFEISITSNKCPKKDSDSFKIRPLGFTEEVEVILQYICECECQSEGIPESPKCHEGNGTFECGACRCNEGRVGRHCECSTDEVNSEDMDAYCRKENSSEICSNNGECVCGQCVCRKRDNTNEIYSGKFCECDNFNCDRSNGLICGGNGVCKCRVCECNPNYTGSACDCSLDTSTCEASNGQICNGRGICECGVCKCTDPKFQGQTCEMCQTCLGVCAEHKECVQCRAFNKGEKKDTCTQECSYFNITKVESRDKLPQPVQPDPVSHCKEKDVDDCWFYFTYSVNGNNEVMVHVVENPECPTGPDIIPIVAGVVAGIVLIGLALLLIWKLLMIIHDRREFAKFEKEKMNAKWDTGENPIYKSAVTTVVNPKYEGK
T2 sequence (P23229 24-1130): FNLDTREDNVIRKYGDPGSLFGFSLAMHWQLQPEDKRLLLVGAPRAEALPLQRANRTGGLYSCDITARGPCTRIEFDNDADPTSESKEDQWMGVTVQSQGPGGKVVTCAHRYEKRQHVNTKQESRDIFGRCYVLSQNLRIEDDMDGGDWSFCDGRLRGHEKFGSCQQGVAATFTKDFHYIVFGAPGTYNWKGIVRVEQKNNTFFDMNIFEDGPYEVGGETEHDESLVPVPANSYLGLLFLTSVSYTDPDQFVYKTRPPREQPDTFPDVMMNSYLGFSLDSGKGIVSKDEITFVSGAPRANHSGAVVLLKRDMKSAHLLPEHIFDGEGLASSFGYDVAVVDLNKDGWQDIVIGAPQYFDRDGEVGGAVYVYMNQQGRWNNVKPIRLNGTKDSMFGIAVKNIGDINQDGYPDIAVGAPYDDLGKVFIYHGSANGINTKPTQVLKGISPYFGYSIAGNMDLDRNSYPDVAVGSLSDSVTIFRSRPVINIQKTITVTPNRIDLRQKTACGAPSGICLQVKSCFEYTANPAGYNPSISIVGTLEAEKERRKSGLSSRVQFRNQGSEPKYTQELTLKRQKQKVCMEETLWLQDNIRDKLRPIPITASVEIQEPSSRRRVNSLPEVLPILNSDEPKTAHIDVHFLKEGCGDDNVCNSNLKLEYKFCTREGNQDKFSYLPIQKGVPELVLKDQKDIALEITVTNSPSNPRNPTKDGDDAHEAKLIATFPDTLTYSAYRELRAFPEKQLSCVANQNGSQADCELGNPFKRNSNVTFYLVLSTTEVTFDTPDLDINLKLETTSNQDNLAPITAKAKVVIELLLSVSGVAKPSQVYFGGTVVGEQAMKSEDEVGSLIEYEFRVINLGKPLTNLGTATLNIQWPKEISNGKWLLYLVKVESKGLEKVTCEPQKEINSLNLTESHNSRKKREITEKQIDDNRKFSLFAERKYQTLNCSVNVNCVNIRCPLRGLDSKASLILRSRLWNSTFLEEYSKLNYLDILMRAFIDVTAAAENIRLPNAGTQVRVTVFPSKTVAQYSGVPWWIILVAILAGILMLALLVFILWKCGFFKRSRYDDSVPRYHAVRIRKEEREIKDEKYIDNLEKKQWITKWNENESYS
T2 sequence (P16144 28-1822): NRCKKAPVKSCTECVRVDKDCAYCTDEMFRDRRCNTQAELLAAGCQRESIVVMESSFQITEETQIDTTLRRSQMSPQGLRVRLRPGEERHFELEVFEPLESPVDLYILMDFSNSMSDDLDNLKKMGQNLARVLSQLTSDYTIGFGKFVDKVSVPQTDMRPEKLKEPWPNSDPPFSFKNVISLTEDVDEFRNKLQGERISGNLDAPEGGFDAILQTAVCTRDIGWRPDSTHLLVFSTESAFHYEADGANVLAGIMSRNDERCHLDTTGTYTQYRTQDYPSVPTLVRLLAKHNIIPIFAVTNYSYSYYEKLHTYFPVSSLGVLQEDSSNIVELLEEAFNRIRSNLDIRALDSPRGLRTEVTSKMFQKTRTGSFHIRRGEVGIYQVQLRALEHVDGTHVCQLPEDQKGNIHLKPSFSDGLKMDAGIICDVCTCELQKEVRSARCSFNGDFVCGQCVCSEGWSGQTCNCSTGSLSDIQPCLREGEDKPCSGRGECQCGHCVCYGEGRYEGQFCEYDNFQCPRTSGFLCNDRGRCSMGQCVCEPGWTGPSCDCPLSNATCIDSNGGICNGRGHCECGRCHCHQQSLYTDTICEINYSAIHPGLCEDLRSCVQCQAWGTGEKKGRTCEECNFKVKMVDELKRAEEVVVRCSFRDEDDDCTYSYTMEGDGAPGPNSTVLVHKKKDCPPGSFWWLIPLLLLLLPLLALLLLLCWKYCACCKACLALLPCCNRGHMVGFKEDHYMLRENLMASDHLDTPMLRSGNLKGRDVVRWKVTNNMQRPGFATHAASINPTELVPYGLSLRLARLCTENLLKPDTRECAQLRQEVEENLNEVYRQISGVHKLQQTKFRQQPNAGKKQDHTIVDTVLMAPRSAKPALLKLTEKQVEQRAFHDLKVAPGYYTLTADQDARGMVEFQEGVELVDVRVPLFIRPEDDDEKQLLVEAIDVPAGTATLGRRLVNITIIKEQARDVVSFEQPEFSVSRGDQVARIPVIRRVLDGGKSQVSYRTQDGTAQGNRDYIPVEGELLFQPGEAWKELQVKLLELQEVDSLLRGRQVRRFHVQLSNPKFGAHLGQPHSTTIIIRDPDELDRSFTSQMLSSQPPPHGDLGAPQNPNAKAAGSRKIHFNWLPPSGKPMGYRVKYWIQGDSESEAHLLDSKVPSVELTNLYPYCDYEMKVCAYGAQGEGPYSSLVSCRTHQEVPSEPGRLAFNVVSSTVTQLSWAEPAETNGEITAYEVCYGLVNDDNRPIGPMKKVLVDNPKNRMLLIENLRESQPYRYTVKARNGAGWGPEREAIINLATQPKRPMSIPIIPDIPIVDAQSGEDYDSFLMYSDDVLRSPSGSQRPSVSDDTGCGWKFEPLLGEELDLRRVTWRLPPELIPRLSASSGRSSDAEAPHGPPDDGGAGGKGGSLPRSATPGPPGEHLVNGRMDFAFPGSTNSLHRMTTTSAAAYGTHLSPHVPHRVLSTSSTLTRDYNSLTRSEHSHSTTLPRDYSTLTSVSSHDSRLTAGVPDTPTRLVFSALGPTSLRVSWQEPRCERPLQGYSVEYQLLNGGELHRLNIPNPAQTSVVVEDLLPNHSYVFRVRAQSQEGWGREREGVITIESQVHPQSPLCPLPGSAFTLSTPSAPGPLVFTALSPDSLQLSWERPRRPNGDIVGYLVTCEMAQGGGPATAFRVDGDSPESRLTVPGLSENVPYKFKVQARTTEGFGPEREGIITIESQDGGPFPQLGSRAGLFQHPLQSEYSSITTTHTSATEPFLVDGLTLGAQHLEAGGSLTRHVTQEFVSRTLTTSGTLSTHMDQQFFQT

| Molecule | Induction of cell proliferation in B16F10 cells [1] | Suppression of cell proliferation in B16F10 cells ([1]; P=0.0354 between wt and 3KE+wt) | Adhesion of α6β4-CHO cells to the immobilized protein [2] | Adhesion of β3-CHO cells to the immobilized protein [3] | Adhesion of β1-CHO cells to the immobilized protein [4] | Binding to immobilized soluble ErbB3 (ELISA-type assay) [5] | Binding to immobilized soluble ErbB3 (ELISA-type assay) ([5]; listed as 3KE mutant NRG1α (175-241)) | Binding to immobilized soluble ErbB3 (ELISA-type assay) ([5]; listed as 3KE mutant of NRG1α (175-241)) |
| --- | --- | --- | --- | --- | --- | --- | --- | --- |
| 3KE (175-222): NRG1 (175-222) with Lys181/Lys185/Lys187 mutated to Glu; GTSHLVECAEEEETFCVNGGECFMVKDLSNPSRYLCKCQPGFTGARCT (SEQ ID NO:11) (integrin-binding site within human neuregulin, 3KE mutant, short version) | did not induce them | Suppression of cell proliferation | did not adhere |  |  |  |  |  |
| wt NRG1 (175-222): wild type human neuregulin 1 fragment, EGF-like domain, residues 175-222 of SEQ ID NO:4 (SEQ ID NO:3) (GTSHLVKCAEKEKTFCVNGGECFMVKDLSNPSRYLCKCQPGFTGARCT; integrin-binding site within human neuregulin 1 EGF-like region and portion of alpha domain, residues 175-222 of human neuregulin 1 alpha) [reference compound] | induced cell proliferation |  | adhere | adhered to NRG1 (175-222) | did not |  |  |  |
| B1 |  |  |  | adhered to NRG1α (175-241) | did not | bound to immobilized soluble ErbB3 comparably |  |  |
| B2 |  |  |  |  |  |  | bound to immobilized soluble ErbB3 comparably | binds to ErbB3 at levels nearly comparable to WT NRG1α (175-241) |
